Numbering of substitutions follows the chain as printed. Several values for one entry are separate records, joined by “and”; a condition that tells them apart may be missing. Identical values can stand only once.
How the values were obtained:
[1] = Thermal stability (melting temperature), functional antibody measured in Biacore; format: physicochemical
Procedure: To examine the thermal stability of the germlined and the parental versions of 68F2 in full length human IgG1 format, antibody samples were incubated at a concentration of 100 μg/ml (in PBS) at 4, 50, 55, 60, 65, 70 and 75° C. for 1 hour. Following this, the samples were cooled down slowly during a period of 15 minutes to 25° C. and kept at this temperature for 2 hours, after which they were stored overnight at 4° C. Following centrifugation to remove precipitates (of denatured antibody), the concentration of functional antibody remaining in solution was measured using Biacore (1/10 dilution in PBS and 1/10 in HBSEP). The slope of the association curve obtained after injection on the IL-6 immobilized chip is a measure of the concentration of functional antibody.

[2] = Pharmacokinetic study, single intravenous dose; format: in vivo, cynomolgus monkey
Procedure: Pharmacokinetic analysis of antibody clone 129D3 formatted as various IgG1 molecules was performed. The following antibodies were analysed: Wild-type IgG1 129D3 (129D3-WT), IgG1 129D3 with the mutations M252Y/S254T/T256E in the Fc region (129D3-YTE), and IgG1 129D3 with the mutations H433K and N434F in the Fc region (129D3-HN).
Cynomolgus monkeys (3 per antibody tested) were injected intravenously with a single 5 mg/kg dose of 129D3-WT, 129D3-YTE, or 129D3-HN. Samples were taken at different time points and tested for plasma concentration of mAb by the ELISA. Specifically, a microtiterplate (Maxisorb Nunc) was coated with 1 ug/ml IL-6 (Immunotools) in PBS overnight at 4C. The plate was washed 2 times with PBS-Tween and blocked for 2 hours with 300 μl PBS-1% casein. After 2 washes with PBS-Tween, the samples were applied. All dilutions were made in 1% pooled blank plasma (this is a pool from 3 naive cynomolgus monkeys, see chapter 4.2). The samples were allowed to bind for 2 hours at RT. Plates were then washed 5 times with PBS-Tween and goat biotinilated anti-human IgG heavy and light chain monkey adsorbed polyclonal antibodies were applied at a 1000-fold dilution (Bethyl, catno: A80-319B) and allowed to bind for 1 hour at RT. After washing the plates 5 times with PBS-Tween, streptavidin conjugated with HRP (Jackson Immunoresearch 016-030-084) was applied at a 300,000-fold dilution and allowed to bind for 1 hour at RT. Plates were then washed 5 times with PBS-Tween and a 1:1 mixture of TMB (calbiochem CL07)-s(HS)TMB weakener (SDT, #sTMB-W) was added. The staining was allowed to proceed for 10 minutes and then stopped with 0.5 M […], after which the Optical Density was measured at 450 nm. The samples were analysed four times and 129D3-WT (from the same batch that was injected into the animals) was used for a standard curve.
The pharmacokinetic profiles for the different 129D3 IgG1 antibodies are shown graphically in FIG. 12 (the results are shown are the average result of the group of monkeys).

RXF393 cells = assay: Renal cell cancer mouse xenograft model; format: in vivo; settings: 3 mg/kg
Procedure: The in vivo efficacy of clones 68F2 was investigated in a renal cell cancer mouse xenograft model. […] Briefly, RXF393 cells (2×10^6) were injected subcutaneously at both lateral sides of a nude mouse. Tumors were allowed to grow to a volume between of 50 en 300 mm^3, prior to antibody administration. 90% of the injected mice developed a tumor. 40 mice were split into 5 groups of 8 mice. Each group was received intraperatoneal injection of either PBS (control) or a specific dose of clone 68F2 (1, 3, 10, or 30 mg/kg). Tumor size and survival was monitored twice per week.

IGROV-1 epithelial cells = assay: Epithelial ovarian cancer mouse xenograft (survival); format: in vivo; settings: 4 or 20 mg/kg biweekly, nude mice
Procedure: The in vivo potency of clone 129D3 was determined using a mouse xenogaft model. IGROV-1 epithelial cells (5×10^6) were injected subcutaneously into nude mice. After three days, mice were administered 129D3 or CNTO328 biweekly, at a dosage of 4 or 20 mg/kg. There were 5 mice per group and 10 mice in the control group. Percentage survival of mice in each study group was determined each week and the results plotted as a survival curve.

[3] = target: T1, bacterially produced human IL-6 (Homo sapiens, UniProt P05231); assay: Surface plasmon resonance (Biacore), bacterially produced human IL-6 coated on CM5 chip; format: binding; settings: for Bact (off-rate): 24D10 chain-shuffled Fabs
T1 construct: His
T1 sequence (P05231 30-212): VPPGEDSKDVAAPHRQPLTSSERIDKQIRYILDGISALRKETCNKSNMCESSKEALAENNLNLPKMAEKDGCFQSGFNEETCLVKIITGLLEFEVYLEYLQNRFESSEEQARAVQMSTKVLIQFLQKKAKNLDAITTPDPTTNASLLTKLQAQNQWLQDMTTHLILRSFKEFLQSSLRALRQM
Procedure: (§1) The binding kinetics of IL-6-specific Fabs that were able to cross-compete with the B-E8 antibody was assessed using surface plasmon resonance (Biacore). Specifically, biotinylated (prokaryotic) IL-6 was captured on a streptavidin biacore sensor chip (CM5-SA) and different concentrations of purified Fabs were injected during 3 minutes following by a 5 minute wash with buffer. From the washing phase the off-rate (kd) was determined, while from the injection phase the on-rate (ka) was calculated using the concentration and off-rate as parameters. […] The binding kinetics of antagonistic purified Fabs (Table 3) and periplasmic fractions of Fab-expressing bacteria (Table 4) were also evaluated by surface plasmon resonance (Biacore) using both bacterially and eukaryotically produced human IL-6 directly coated on a CM5 chip. The Fabs tested had off-rates between 6×10^−4 and 2×10^−5 s^−1.
(§2) VL chain shuffling was used to improve the affinity of the Fabs 17F10, 18C7, 18C9, 18C11, 20A4, 29B11, 16D2 and 28A6. In this method, the heavy chain of these clones (as a VHCH1 fragment) was reintroduced into the primary phagemid-light chain library (see Example 1). Affinity selections were performed to select for chain shuffled Fabs with an improved affinity for IL-6. The binding kinetics of chain shuffled Fabs were evaluated by surface plasmon resonance (Biacore) using both bacterially and eukaryotically produced human IL-6, and cynomolgus monkey IL-6 (Tables 5-7). The VH and VL amino acid sequences of exemplary IL-6-specific Fabs selected by the VL chain shuffling method are set forth in Table 14 below.
(§3) VH chain shuffling was also used to improve the affinity of the Fab 24D10. In this method, the light chain of 24D10 was reintroduced into the primary phagemid-heavy chain library (see Example 1) and selected using an off-rate assay. In this type of selection, the phage were allowed to bind to antigen on a substrate for 1.5 to 2 hours. At round 2, after 15 washes with PBS-Tween, an additional wash was performed with the presence of excess soluble IL-6. […] This procedure avoids re-binding of such phage to the coated target. […] The binding kinetics of chain shuffled Fabs and the benchmark antibodies, BE8 and GL18, were evaluated by surface plasmon resonance (Biacore) using both bacterially and eukaryotically produced human IL-6 (Tables 8 and 9). The VH and VL amino acid sequences of exemplary IL-6-specific Fabs selected by the VH chain shuffling method are set forth in Table 14 below. […]

[4] = target: T2, eukaryotically produced human IL-6 (Homo sapiens, UniProt P05231); assay: Surface plasmon resonance (Biacore), eukaryotically produced human IL-6 coated on CM5 chip; format: binding; settings: for RANKED euk (off-rate): 24D10 chain-shuffled Fabs; for Average binding: average over the IL-6 forms
T2 construct: purchased Humanzyme HZ-1044; host or cells: Human Embryonic kidney cells
T2 sequence (P05231 30-212): as above
Procedure: as §1, §2, §3

IL-6 = assay: Serum amyloid A (SAA) mouse model, induction by injected IL-6; format: in vivo; design: SAA, Mean / SAA, Mouse1 / SAA, Mouse2 / SAA, Mouse3 / SAA, Mouse4 / SAA, Mouse5 / SAA, Mouse6: unit not given here; settings: for SAA, Mouse1 / SAA, Mouse2 / SAA, Mouse3 / SAA, Mouse4 / SAA, Mouse5 / SAA, Mouse6 / SAA, Mean: 0.1 μg IL-6; for SAA, Mean: mean of 6 mice
Procedure: The in vivo efficacy of clones 68F2 and 61H7 was further investigated by measuring the ability of these antibodies to block serum amyloid A (SAA) induction in response to injected IL-6. General methods for performing this assay are set forth in WO2006/119115A2, which is hereby incorporated by reference in its entirety. […] Four hours after administration of the antibody, the mice were injected with 0.1 ug of IL-6. After a further 16 hours, blood was taken from the mice and the concentration of Serum Amyloid A was determined by ELISA. The dose responses are also graphically depicted in FIG. 13.

cynomolgus monkey IL-6 [5] = target: T3, cynomolgus monkey IL-6 (Macaca fascicularis, UniProt P79341); assay: Surface plasmon resonance (Biacore), cynomolgus monkey IL-6; format: binding; settings: periplasmic fractions, 24D10 chain-shuffled Fabs
T3 construct: His
T3 sequence (P79341 28-212): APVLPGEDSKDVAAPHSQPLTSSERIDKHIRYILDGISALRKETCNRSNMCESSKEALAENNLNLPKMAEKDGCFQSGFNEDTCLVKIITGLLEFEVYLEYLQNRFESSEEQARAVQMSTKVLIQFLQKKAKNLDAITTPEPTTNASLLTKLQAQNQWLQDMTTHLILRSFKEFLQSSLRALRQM

cynomolgus monkey IL-6 [6] = target: T3, cynomolgus monkey IL-6; assay: as above; format: binding; settings: cy/cyno; periplasmic fractions, 29B11 chain shuffled
[7] = single intravenous administration, cynomolgus monkey, non-compartmental
[8] = Bact, purified 24D10 chain-shuffled Fabs
[9] = Euk IL-6, purified 24D10 chain-shuffled Fabs
[10] = bact, periplasmic fractions, 29B11 chain shuffled
[11] = euk, periplasmic fractions, 29B11 chain shuffled

B1: 129D3: final germlined variant of 68F2; 129D3-WT is wild-type IgG1 129D3 (antibody, listed as Lama glama, V domains shown)
VH: EVQLQESGPGLVKPSQTLSLTCTVSGGSITSRYYAWSWIRQPPGKGLEWIGVIDYDGDTYYSPSLKSRVSISWDTSKNQFSLKLSSVTPADTAVYYCARDPDVVTGFHYDYWGQGTMVTVSS
VL: QSALTQPPSVSGTPGQSVTISCAGANNDIGTYAYVSWYQQLPGTAPKLMIYKVTTRASGIPDRFSGSKSGNTASLTISGLQAEDEADYYCASYRNFNNAVFGTGTKLTVL
modifications: IgG1 constant regions
notes: final germlined variant of 68F2; 129D3-WT is wild-type IgG1 129D3
[1]; human IgG1
  Tm higher than the parental 68F2 antibody: 3 °C
[1]; human IgG1, 100 μg/ml in PBS, 1 hour
  Tm: around 70 °C
[2]; 5 mg/kg i.v.
  half-life: about 15.6 days
[2]; [7]
  MRT (Mean Residence Time): 22.4 days
  T½ (elimination half-life): 15.6 days
  k (mean elimination rate constant): 0.0468 day⁻¹
RXF393 cells
  survival relative to control: effective at delaying death of mice relative to control
  tumor outgrowth: effective at inhibiting tumor outgrowth
IGROV-1 epithelial cells
  in vivo potency (survival): superior to the benchmark CNTO328 IL-6 antibody

B2: 61H7: anti-IL-6 clone from VH chain shuffling of 24D10; Fab and IgG formats (antibody, V domains shown)
VH: EVQLVESGGGLVQPGGSLRLSCAASGFTFSSYRMYWVRQPPGKGLEWVSAISAGGGSTYYGDSVKGRFTISRDNAKNTVYLQMNSLKPEDTAVYYCANRAGWGMGDYWGQGTQVTVSS
VL: QTVVTQEPSLSVSPGGTVTLTCGLSSGSVTASNYPGWFQQTPGQAPRALIYSTNDRHSGVPSRFSGSISGNKAALTITGAQPEDEADYYCALDIGDITEFGGGTHLTVLG
[3]; [8]
  ka: 120000 M⁻¹ s⁻¹
  kd: 2e-06 s⁻¹
[3]; periplasmic fractions
  Bact (off-rate): 7.54E−05
[4]; [9]
  ka: 120000 M⁻¹ s⁻¹
  kd: 5.5e-05 s⁻¹
[4]; periplasmic fractions ('pur' = purified Fab), IL-6 form not stated
  binding: 176
[4]; periplasmic fractions
  RANKED euk (off-rate): 9.32E−05
  Average binding: 635 RU
IL-6; Ab dose/mouse 0.31 μg
  SAA, Mouse1: 184
  SAA, Mouse2: 148
  SAA, Mouse3: 124
  SAA, Mouse4: 140
  SAA, Mouse5: 133
  SAA, Mouse6: 76
  SAA, Mean: 134.2
IL-6; Ab dose/mouse 1.25 μg
  SAA, Mouse1: 66
  SAA, Mouse2: 29
  SAA, Mouse3: 33
  SAA, Mouse4: 30
  SAA, Mouse5: 24
  SAA, Mouse6: 35
  SAA, Mean: 36.2
IL-6; Ab dose/mouse 5 μg
  SAA, Mouse1: 47
  SAA, Mouse2: 62
  SAA, Mouse3: 47
  SAA, Mouse4: 40
  SAA, Mouse5: 46
  SAA, Mouse6: 47
  SAA, Mean: 48.2
IL-6; Balb/c mice, i.v., 0.1 ug IL-6
  in vivo efficacy (block of SAA induction): in vivo efficacy at least equal to the high potency benchmark controls GL18 and CNTO136
Cynomolgus monkey IL-6 [5]
  cyno (off-rate): 9.45E−05

B3: 61B7: 24D10 chain-shuffled Fab (antibody, V domains shown)
VH: B2 VH with V2L, R33A, Y35S, P40A, L45P, A50R, A53S, T58A, G61A, V79L
VL: B2 VL
[3]; [8]
  ka: 350000 M⁻¹ s⁻¹
  kd: 5.7e-05 s⁻¹
[3]; periplasmic fractions
  Bact (off-rate): 9.07E−05
[4]; [9]
  ka: 330000 M⁻¹ s⁻¹
  kd: 6.6e-05 s⁻¹
[4]; periplasmic fractions
  RANKED euk (off-rate): 9.79E−05
  Average binding: 597 RU
Cynomolgus monkey IL-6 [5]
  cyno (off-rate): 1.16E−04

B4: 55H1c: 29B11 chain shuffled Fab, periplasmic fraction (antibody, V domains shown)
VH: EVQLVESGGGLVQPGGSLRLSCAASGFTFSSYAMSWVRQAPGKGLEWVSRISSGGISTYYADSVKGRFTISRDNAKNTLYLQMNSLKPEDTAVYYCVRYAWGVQWAFDFWGQGTQVTVSS
VL: AQSVVTQPPSVSGSPGKTVTISCAGTSSDVGYGNYVSWYQQLPGMAPKLLIYDVSKRASGIADRFSGSKSGNTASLTISGLQSEDEADYVCASYRRGGTAVFGGGTHLTVLG
Cynomolgus monkey IL-6 [6]
  KA: 1.89e+09 M⁻¹
  ka: 1.16e+06 M⁻¹ s⁻¹
  kd: 0.000615 s⁻¹
[3]; [10]
  KA: 1e+10 M⁻¹
  ka: 1.28e+06 M⁻¹ s⁻¹
  kd: 0.000127 s⁻¹
[3]; periplasmic fractions
  Bact (off-rate): 1.35E−04 and 1.40E−04 and 1.26E−04
[4]; [11]
  KA: 1.02e+10 M⁻¹
  ka: 1.13e+06 M⁻¹ s⁻¹
  kd: 0.000111 s⁻¹
[4]; periplasmic fractions
  RANKED euk (off-rate): 1.01E−04 and 1.06E−04 and 1.13E−04
  Average binding: 773 RU and 770 RU and 873 RU
Cynomolgus monkey IL-6 [5]
  cyno (off-rate): 4.17E−04 and 4.30E−04 and 3.90E−04
